Reference: US20210032299A1 (Eli Lilly, published 2021)
Residue numbers refer to the chain shown, from its start. Starred links: 1 amine or outer side, 2 acyl side, 3 side chain; linkers in the order of their positions; H or OH if unused. Non-standard residues stand in square brackets, D forms with d. Groups on a side chain read outwards from the residue. No end group written: not given here. *: point of attachment. C20 diacid = O=C(O)CCCCCCCCCCCCCCCCCCC(=O)*; γGlu = O=C(O)[C@H](CCC(=O)[*:2])N[*:1]; 4Pal = N[C@@H](Cc1ccncc1)C(=O)O; αMeL = CC(C)C[C@](C)(N)C(=O)O; AEEA = NCCOCCOCC(=O)O; Aib = CC(C)(N)C(=O)O

T1: human glucose-dependent insulinotropic peptide receptor (human, UniProt P48546 22-466)
T1 sequence (looked up): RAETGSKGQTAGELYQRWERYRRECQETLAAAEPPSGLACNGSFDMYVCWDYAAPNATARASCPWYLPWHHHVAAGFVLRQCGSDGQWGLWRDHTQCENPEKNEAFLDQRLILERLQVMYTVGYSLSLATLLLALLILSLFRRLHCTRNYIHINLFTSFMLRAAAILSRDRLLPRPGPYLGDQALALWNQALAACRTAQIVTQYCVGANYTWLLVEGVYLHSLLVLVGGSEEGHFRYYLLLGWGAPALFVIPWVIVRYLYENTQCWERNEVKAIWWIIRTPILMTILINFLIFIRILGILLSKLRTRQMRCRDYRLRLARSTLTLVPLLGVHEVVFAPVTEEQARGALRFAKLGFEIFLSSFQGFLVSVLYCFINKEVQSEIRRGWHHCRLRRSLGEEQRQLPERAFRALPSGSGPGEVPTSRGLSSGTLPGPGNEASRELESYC

B1: Example 8 (peptide)
peptide: Y[Aib]EGTFISDYSILLDKK([AEEA-AEEA-γGlu-C20 diacid])AQ[Aib]DFVNWLLAQGPSSGAPPPS-NH2
modifications: N-terminus assumed
SMILES: CC[C@H](C)[C@H](NC(=O)[C@H](CO)NC(=O)[C@H](Cc1ccc(O)cc1)NC(=O)[C@H](CC(=O)O)NC(=O)[C@H](CO)NC(=O)[C@@H](NC(=O)[C@H](Cc1ccccc1)NC(=O)[C@@H](NC(=O)CNC(=O)[C@H](CCC(=O)O)NC(=O)C(C)(C)NC(=O)[C@@H](N)Cc1ccc(O)cc1)[C@@H](C)O)[C@@H](C)CC)C(=O)N[C@@H](CC(C)C)C(=O)N[C@@H](CC(C)C)C(=O)N[C@@H](CC(=O)O)C(=O)N[C@@H](CCCCN)C(=O)N[C@@H](CCCCNC(=O)COCCOCCNC(=O)COCCOCCNC(=O)CC[C@H](NC(=O)CCCCCCCCCCCCCCCCCCC(=O)O)C(=O)O)C(=O)N[C@@H](C)C(=O)N[C@@H](CCC(N)=O)C(=O)NC(C)(C)C(=O)N[C@@H](CC(=O)O)C(=O)N[C@@H](Cc1ccccc1)C(=O)N[C@H](C(=O)N[C@@H](CC(N)=O)C(=O)N[C@@H](Cc1c[nH]c2ccccc12)C(=O)N[C@@H](CC(C)C)C(=O)N[C@@H](CC(C)C)C(=O)N[C@@H](C)C(=O)N[C@@H](CCC(N)=O)C(=O)NCC(=O)N1CCC[C@H]1C(=O)N[C@@H](CO)C(=O)N[C@@H](CO)C(=O)NCC(=O)N[C@@H](C)C(=O)N1CCC[C@H]1C(=O)N1CCC[C@H]1C(=O)N1CCC[C@H]1C(=O)N[C@@H](CO)C(N)=O)C(C)C
B2: Example 12 (peptide)
peptide: Y[dA]EGTFISDYSILLDKK([AEEA-AEEA-γGlu-C20 diacid])AQQDFVNWLLAGGPSSGAPPPS-NH2
modifications: N-terminus assumed
SMILES: CC[C@H](C)[C@H](NC(=O)[C@H](CO)NC(=O)[C@H](Cc1ccc(O)cc1)NC(=O)[C@H](CC(=O)O)NC(=O)[C@H](CO)NC(=O)[C@@H](NC(=O)[C@H](Cc1ccccc1)NC(=O)[C@@H](NC(=O)CNC(=O)[C@H](CCC(=O)O)NC(=O)[C@@H](C)NC(=O)[C@@H](N)Cc1ccc(O)cc1)[C@@H](C)O)[C@@H](C)CC)C(=O)N[C@@H](CC(C)C)C(=O)N[C@@H](CC(C)C)C(=O)N[C@@H](CC(=O)O)C(=O)N[C@@H](CCCCN)C(=O)N[C@@H](CCCCNC(=O)COCCOCCNC(=O)COCCOCCNC(=O)CC[C@H](NC(=O)CCCCCCCCCCCCCCCCCCC(=O)O)C(=O)O)C(=O)N[C@@H](C)C(=O)N[C@@H](CCC(N)=O)C(=O)N[C@@H](CCC(N)=O)C(=O)N[C@@H](CC(=O)O)C(=O)N[C@@H](Cc1ccccc1)C(=O)N[C@H](C(=O)N[C@@H](CC(N)=O)C(=O)N[C@@H](Cc1c[nH]c2ccccc12)C(=O)N[C@@H](CC(C)C)C(=O)N[C@@H](CC(C)C)C(=O)N[C@@H](C)C(=O)NCC(=O)NCC(=O)N1CCC[C@H]1C(=O)N[C@@H](CO)C(=O)N[C@@H](CO)C(=O)NCC(=O)N[C@@H](C)C(=O)N1CCC[C@H]1C(=O)N1CCC[C@H]1C(=O)N1CCC[C@H]1C(=O)N[C@@H](CO)C(N)=O)C(C)C
B3: Example 3 (peptide)
peptide: Y[Aib]EGTFISDYSI[αMeL]LDKK([AEEA-AEEA-γGlu-C20 diacid])HQ[Aib]DFVE[4Pal]LLEAGPSSGAPPPS-NH2
modifications: N-terminus assumed
SMILES: CC[C@H](C)[C@H](NC(=O)[C@H](Cc1ccccc1)NC(=O)[C@@H](NC(=O)CNC(=O)[C@H](CCC(=O)O)NC(=O)C(C)(C)NC(=O)[C@@H](N)Cc1ccc(O)cc1)[C@@H](C)O)C(=O)N[C@@H](CO)C(=O)N[C@@H](CC(=O)O)C(=O)N[C@@H](Cc1ccc(O)cc1)C(=O)N[C@@H](CO)C(=O)N[C@H](C(=O)N[C@@](C)(CC(C)C)C(=O)N[C@@H](CC(C)C)C(=O)N[C@@H](CC(=O)O)C(=O)N[C@@H](CCCCN)C(=O)N[C@@H](CCCCNC(=O)COCCOCCNC(=O)COCCOCCNC(=O)CC[C@H](NC(=O)CCCCCCCCCCCCCCCCCCC(=O)O)C(=O)O)C(=O)N[C@@H](Cc1c[nH]cn1)C(=O)N[C@@H](CCC(N)=O)C(=O)NC(C)(C)C(=O)N[C@@H](CC(=O)O)C(=O)N[C@@H](Cc1ccccc1)C(=O)N[C@H](C(=O)N[C@@H](CCC(=O)O)C(=O)N[C@@H](Cc1ccncc1)C(=O)N[C@@H](CC(C)C)C(=O)N[C@@H](CC(C)C)C(=O)N[C@@H](CCC(=O)O)C(=O)N[C@@H](C)C(=O)NCC(=O)N1CCC[C@H]1C(=O)N[C@@H](CO)C(=O)N[C@@H](CO)C(=O)NCC(=O)N[C@@H](C)C(=O)N1CCC[C@H]1C(=O)N1CCC[C@H]1C(=O)N1CCC[C@H]1C(=O)N[C@@H](CO)C(N)=O)C(C)C)[C@@H](C)CC
B4: Example 11 (peptide)
peptide: Y[dA]EGTFISDYSILLDKK([AEEA-AEEA-γGlu-C20 diacid])AQQDFVNWLLAQGPSSGAPPPS-NH2
modifications: N-terminus assumed
SMILES: CC[C@H](C)[C@H](NC(=O)[C@H](CO)NC(=O)[C@H](Cc1ccc(O)cc1)NC(=O)[C@H](CC(=O)O)NC(=O)[C@H](CO)NC(=O)[C@@H](NC(=O)[C@H](Cc1ccccc1)NC(=O)[C@@H](NC(=O)CNC(=O)[C@H](CCC(=O)O)NC(=O)[C@@H](C)NC(=O)[C@@H](N)Cc1ccc(O)cc1)[C@@H](C)O)[C@@H](C)CC)C(=O)N[C@@H](CC(C)C)C(=O)N[C@@H](CC(C)C)C(=O)N[C@@H](CC(=O)O)C(=O)N[C@@H](CCCCN)C(=O)N[C@@H](CCCCNC(=O)COCCOCCNC(=O)COCCOCCNC(=O)CC[C@H](NC(=O)CCCCCCCCCCCCCCCCCCC(=O)O)C(=O)O)C(=O)N[C@@H](C)C(=O)N[C@@H](CCC(N)=O)C(=O)N[C@@H](CCC(N)=O)C(=O)N[C@@H](CC(=O)O)C(=O)N[C@@H](Cc1ccccc1)C(=O)N[C@H](C(=O)N[C@@H](CC(N)=O)C(=O)N[C@@H](Cc1c[nH]c2ccccc12)C(=O)N[C@@H](CC(C)C)C(=O)N[C@@H](CC(C)C)C(=O)N[C@@H](C)C(=O)N[C@@H](CCC(N)=O)C(=O)NCC(=O)N1CCC[C@H]1C(=O)N[C@@H](CO)C(=O)N[C@@H](CO)C(=O)NCC(=O)N[C@@H](C)C(=O)N1CCC[C@H]1C(=O)N1CCC[C@H]1C(=O)N1CCC[C@H]1C(=O)N[C@@H](CO)C(N)=O)C(C)C
B5: Example 1 (peptide)
peptide: YXEGTFISDYSILLDKKAQXDFVNWLLAQGPSSGAPPPS
modifications: D-Ala2; K17((2-[2-(2-Amino-ethoxy)-ethoxy]-acetyl)2-(γ-Glu)-CO-(CH2)18-CO2H); Aib20; C-terminal amide
B6: Example 2 (peptide)
peptide: B5 peptide
modifications: D-Ala2; K17((2-[2-(2-Amino-ethoxy)-ethoxy]-acetyl)2-(γ-Glu)-CO-(CH2)16-CO2H); Aib20; C-terminal amide
B7: Example 9 (peptide)
peptide: B5 peptide with A18H
modifications: D-Ala2; K17((2-[2-(2-Amino-ethoxy)-ethoxy]-acetyl)2-(γ-Glu)-CO-(CH2)18-CO2H); Aib20; C-terminal amide
B8: GIP(1-42)-NH2 (ligand)
peptide: YAEGTFISDYSIAMDKIHQQDFVNWLLAQKGKKNDWKHNITQ-NH2
B9: Example 10 (peptide)
peptide: Y[dA]EGTFISDYSILLDKK([AEEA-AEEA-γGlu-C20 diacid])HQQDFVNWLLAGGPSSGAPPPS-NH2
modifications: N-terminus assumed
SMILES: CC[C@H](C)[C@H](NC(=O)[C@H](CO)NC(=O)[C@H](Cc1ccc(O)cc1)NC(=O)[C@H](CC(=O)O)NC(=O)[C@H](CO)NC(=O)[C@@H](NC(=O)[C@H](Cc1ccccc1)NC(=O)[C@@H](NC(=O)CNC(=O)[C@H](CCC(=O)O)NC(=O)[C@@H](C)NC(=O)[C@@H](N)Cc1ccc(O)cc1)[C@@H](C)O)[C@@H](C)CC)C(=O)N[C@@H](CC(C)C)C(=O)N[C@@H](CC(C)C)C(=O)N[C@@H](CC(=O)O)C(=O)N[C@@H](CCCCN)C(=O)N[C@@H](CCCCNC(=O)COCCOCCNC(=O)COCCOCCNC(=O)CC[C@H](NC(=O)CCCCCCCCCCCCCCCCCCC(=O)O)C(=O)O)C(=O)N[C@@H](Cc1c[nH]cn1)C(=O)N[C@@H](CCC(N)=O)C(=O)N[C@@H](CCC(N)=O)C(=O)N[C@@H](CC(=O)O)C(=O)N[C@@H](Cc1ccccc1)C(=O)N[C@H](C(=O)N[C@@H](CC(N)=O)C(=O)N[C@@H](Cc1c[nH]c2ccccc12)C(=O)N[C@@H](CC(C)C)C(=O)N[C@@H](CC(C)C)C(=O)N[C@@H](C)C(=O)NCC(=O)NCC(=O)N1CCC[C@H]1C(=O)N[C@@H](CO)C(=O)N[C@@H](CO)C(=O)NCC(=O)N[C@@H](C)C(=O)N1CCC[C@H]1C(=O)N1CCC[C@H]1C(=O)N1CCC[C@H]1C(=O)N[C@@H](CO)C(N)=O)C(C)C

Key:
Assay in all cases: cell-based or functional assay
human GLP-1 receptor = human GLP-1 receptor (human, UniProt P43220 24-463)
[1] = molecular target: T1, human glucose-dependent insulinotropic …
human glucagon receptor = human glucagon receptor (human, UniProt P47871 26-477)
Sequence of human glucagon receptor (P47871 26-477): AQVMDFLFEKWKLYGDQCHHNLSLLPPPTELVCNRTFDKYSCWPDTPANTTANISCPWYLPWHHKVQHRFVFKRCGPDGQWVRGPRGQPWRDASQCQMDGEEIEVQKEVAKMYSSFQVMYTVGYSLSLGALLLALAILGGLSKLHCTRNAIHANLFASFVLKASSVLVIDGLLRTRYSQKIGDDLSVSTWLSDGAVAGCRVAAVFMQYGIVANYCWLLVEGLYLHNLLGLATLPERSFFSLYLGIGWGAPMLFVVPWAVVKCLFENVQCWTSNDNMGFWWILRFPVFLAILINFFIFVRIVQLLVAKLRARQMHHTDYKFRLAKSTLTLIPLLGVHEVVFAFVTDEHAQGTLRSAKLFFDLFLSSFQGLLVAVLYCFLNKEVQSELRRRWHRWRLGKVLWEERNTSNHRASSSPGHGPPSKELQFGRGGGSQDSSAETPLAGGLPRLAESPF

Row | Binder | hGLP1R cAMP Rel EC50 (human GLP-1 receptor) [nM] | hGIPR cAMP Rel EC50 [1] [nM] | hGcgR cAMP Rel EC50 (human glucagon receptor) [nM]
1 | B1 | > 5000 | 0.0268 | 295
2 | B2 | > 100 | 0.0911 | > 5000
3 | B3 | > 5000 | 0.0178 | 1250
4 | B4 | > 100 | 0.0738 | 445
5 | B5 | > 5000 | 0.0476 | 575
6 | B6 | > 5000 | 0.0123 | 608
7 | B7 | > 100 | 0.165 | > 5000
8 | B8 |  |  | > 5000
9 | B9 | > 100 | 0.611 | > 5000
